Assay [1] has as its target recombinant human DSG2 (human) (UniProt Q14126). The assay is described as follows: SPR, comparison of the two formats.
For assay [2] the target is unchanged. Kind of assay: SPR; summary table, Affinity to DSG2 (nM).
The target is the same in assay [3]. Kind of assay: SPR (Biacore 3000), hDSG2 immobilized, JO protein flowed.
The target is the same in assay [4]. The assay is described as follows: SPR (Biacore 3000), JO protein immobilized, rhDSG2 flowed.
Assay [5] deals with DSG2 on cells (HeLa cells in the viral inhibition assay; HT29 cells in the shedding assay) (UniProt Q14126).
The target is the same in assay [6]. The assay is described as follows: cell-based or functional assay.
Assay [7] shares this target. The assay is described as follows: cell-based or functional assay. This is another data set of the same source.
Assay [8] addresses T1, DSG2 on cells (HeLa cells in the viral inhibition assay; HT29 cells in the shedding assay) (UniProt Q14126 50-1118).
T1 sequence: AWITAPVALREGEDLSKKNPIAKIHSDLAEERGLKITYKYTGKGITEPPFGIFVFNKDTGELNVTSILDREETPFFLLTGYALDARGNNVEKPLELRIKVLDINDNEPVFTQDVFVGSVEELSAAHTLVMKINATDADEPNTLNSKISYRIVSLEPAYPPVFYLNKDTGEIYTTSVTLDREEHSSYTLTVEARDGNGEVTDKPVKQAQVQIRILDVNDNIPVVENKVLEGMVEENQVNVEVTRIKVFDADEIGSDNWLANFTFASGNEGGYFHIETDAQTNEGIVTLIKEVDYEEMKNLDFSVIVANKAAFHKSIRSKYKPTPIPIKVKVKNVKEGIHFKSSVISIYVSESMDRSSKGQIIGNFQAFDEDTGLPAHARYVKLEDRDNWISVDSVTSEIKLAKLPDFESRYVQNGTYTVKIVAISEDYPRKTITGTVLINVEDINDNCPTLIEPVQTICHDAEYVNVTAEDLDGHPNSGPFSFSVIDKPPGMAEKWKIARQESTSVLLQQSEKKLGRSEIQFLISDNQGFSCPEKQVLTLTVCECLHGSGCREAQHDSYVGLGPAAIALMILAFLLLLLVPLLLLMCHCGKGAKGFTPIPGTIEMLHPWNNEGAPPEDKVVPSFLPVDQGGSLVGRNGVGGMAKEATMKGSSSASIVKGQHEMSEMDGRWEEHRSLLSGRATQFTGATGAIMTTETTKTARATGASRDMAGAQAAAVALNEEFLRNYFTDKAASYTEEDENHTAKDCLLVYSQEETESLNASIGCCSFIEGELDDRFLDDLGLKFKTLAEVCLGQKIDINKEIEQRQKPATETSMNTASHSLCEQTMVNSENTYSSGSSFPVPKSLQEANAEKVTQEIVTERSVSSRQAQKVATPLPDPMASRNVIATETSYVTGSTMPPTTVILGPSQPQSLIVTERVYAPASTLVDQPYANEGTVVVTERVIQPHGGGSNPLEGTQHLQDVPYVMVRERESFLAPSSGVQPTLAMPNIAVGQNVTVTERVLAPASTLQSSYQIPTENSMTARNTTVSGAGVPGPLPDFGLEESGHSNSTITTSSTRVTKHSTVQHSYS
The assay is described as follows: cell-based or functional assay.

Assay [9] addresses T1, DSG2 on cells (HeLa cells in the viral …). Kind of assay: cell-based or functional assay. The source holds these as a separate data set.
For assay [10] the target is unchanged. Kind of assay: cell-based or functional assay. The source holds these as a separate data set.
Assay [11] has the same target. Kind of assay: cell-based or functional assay. The source holds these as a separate data set.
Assay [12] addresses T2, recombinant human DSG2 (human, UniProt Q14126 50-609).
T2 construct: also called hDSG2; rhDSG2
T2 sequence: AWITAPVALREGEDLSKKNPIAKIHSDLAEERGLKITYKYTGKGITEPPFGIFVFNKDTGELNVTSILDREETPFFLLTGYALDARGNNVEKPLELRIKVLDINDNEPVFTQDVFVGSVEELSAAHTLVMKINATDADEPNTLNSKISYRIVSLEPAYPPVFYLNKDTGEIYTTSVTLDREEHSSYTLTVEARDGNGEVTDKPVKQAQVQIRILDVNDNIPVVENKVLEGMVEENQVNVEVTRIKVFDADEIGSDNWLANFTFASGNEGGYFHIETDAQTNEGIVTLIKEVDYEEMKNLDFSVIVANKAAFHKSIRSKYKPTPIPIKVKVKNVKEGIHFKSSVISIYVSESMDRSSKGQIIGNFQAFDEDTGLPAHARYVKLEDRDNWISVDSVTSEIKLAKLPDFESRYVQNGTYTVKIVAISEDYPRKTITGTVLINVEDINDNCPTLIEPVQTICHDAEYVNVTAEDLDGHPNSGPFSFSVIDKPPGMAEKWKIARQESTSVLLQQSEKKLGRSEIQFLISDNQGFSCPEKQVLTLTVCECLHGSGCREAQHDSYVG
Kind of assay: SPR; summary table, Affinity to DSG2 (nM).

Assay [13] addresses T2, recombinant human DSG2. The assay is described as follows: SPR (Biacore 3000), hDSG2 immobilized, JO protein flowed.
Assay [14] concerns the target T2, recombinant human DSG2. The assay is described as follows: SPR, comparison of the two formats.
Assay [15] concerns the target T1, DSG2 on cells (HeLa cells in the viral …). The assay is described as follows: cell-based or functional assay. This is another data set of the same source.
Assay [16] shares this target. The assay is described as follows: cell-based or functional assay. This is another data set of the same source.
Assay [17] deals with T2, recombinant human DSG2. The assay is described as follows: SPR (Biacore 3000), JO protein immobilized, rhDSG2 flowed.

“And” between values parts separate entries of the source, which are not always exact repeats. Identical values can stand only once. Like-named read-outs stand apart in the source and are kept apart here.

With “JO-4 (designed binder; other documents disagree on this pair)”, in assay [1], the fold faster on-rate, JO-4 immobilized against DSG2 immobilized amounted to 3.4 fold; the fold improvement in affinity, JO-4 immobilized against DSG2 immobilized stood at 20 fold; the fold more stable dissociation rate, JO-4 immobilized against DSG2 immobilized is 5.7 fold. The Kd in assay [2] amounted to 0.58 nM. In assay [3], the Kd worked out at 11.4 nM and the koff came to 0.00264 s⁻¹. Besides, in [4], the dissociation constant Kd stood at 0.58 nM, the dissociation rate constant (koff) was determined as 0.00046 s⁻¹ and the kon amounted to 790000 M⁻¹ s⁻¹.

Turning to JO-4 (designed binder), in assay [5], the IC50 (read off the curve); VIA, oxidized (non-reduced) JO4 was determined as 0.05 µg/mL and the IC50 (read off the curve); VIA, reduced (DTT) JO4 was 0.05 µg/mL. In addition, in assay [6], the DSG2 shedding from HT29 cells relative to PBS treated monolayers (ELISA of the medium) is 1.44 fold and the VIA IC50 is 0.067 µg/mL. This molecule also came in with a VIA IC50 in assay [7] of 0.065 µg/mL.

B1: GB3 (designed binder)
chain: MRGSHHHHHHGSKVSALKEKVSALKEKVSALKEKVSALKEKVSALKEGSGGGSGGGSGGGSNSIALKNNTLWTGPKPEANSIIEYGKQNPDSKLTLILVKNGGIVNGYVTLMGASDYVNTLFKNKNVSINVELYFDATGHILPDSSSLKTDLELKYKQTADFSARGFMPSTTAYPFDLPNAGTHNENYIFGQSYYKASDGALFPLEVTVMLNKRLPDSRTSYVMTFLWSLNAGLAPETTQATLITSPFTFSYIREDDGGGSGGGSGGGSC
For B1, in assay [8], the “DSG2 shedding from HT29 cells relative to PBS treated monolayers (ELISA of the medium)” value was found to be 1.52 fold and the “VIA, DTT-reduced against oxidized protein: reduction in viral inhibition” value was around 2 fold. Further, the “VIA IC50” value in assay [9] was found to be 0.029 µg/mL. The “VIA IC50” value in [10] worked out at 0.028 µg/mL. For the same molecule, in assay [11], the “IC50 (read off the curve); VIA, oxidized (non-reduced) GB3” value is around 0.03 µg/mL and the “IC50 (read off the curve); VIA, reduced (DTT) GB3” value was around 0.06 µg/mL. Moreover, in the assay with recombinant human DSG2 [12], the Kd was 0.11 nM. Further, in the assay with recombinant human DSG2 [13], the Kd was found to be 0.11 nM and the koff stood at 0.0005 s⁻¹.

B2: GB7/JOC-x (designed binder)
chain: RGSHHHHHHGSKNSIALKNNTLWTGPKPEANSIIEYGKQNPDSKLTLILVKNGGIVNGYVTLMGASDYVNTLFKNKNVSINVELYFDATGHILPDSSSLKTDLELKYKQTADFSARGFMPSTTAYPFDLPNAGTHNENYIFGQSYYKASDGALFPLEVTVMLNKRLPDSRTSYVMTFLWSLNAGLAPETTQATLITSPFTFSYIREDDGGGSGGGSGGGSC
notes: also called GB7 (ΔDD)
On to B2, for which, in assay [8], the “DSG2 shedding from HT29 cells relative to PBS treated monolayers (ELISA of the medium)” value is 1.39 fold; the “VIA IC50” value is 0.032 µg/mL and 0.055 µg/mL; the “VIA, DTT-reduced against oxidized protein: decrease in viral inhibition” value was determined as 5 fold; the “loss of viral inhibition of unconjugated JOC-x in the presence of poly(I:C) (VIA)” value was around 3.9 fold. Moreover, the “VIA IC50” value in assay [9] is 0.032 µg/mL. Moreover, in assay [10], the “VIA IC50” value was 0.029 µg/mL. In addition, the “fold reduction in affinity, GB7 immobilized against DSG2 immobilized” value with recombinant human DSG2 [14] is 2 fold. In [15], the “IC50 (read off the curve); VIA, oxidized (non-reduced) GB7 (JOC-x)” value is around 0.02 µg/mL and the “IC50 (read off the curve); VIA, reduced (DTT) GB7 (JOC-x)” value is around 0.2 µg/mL. Further, in assay [16], the “IC50 (read off the curve); VIA, unconjugated mixture JOC-x + poly(I:C)” value was around 0.2 µg/mL. In addition, in the assay with recombinant human DSG2 [12], the dissociation constant (Kd) was found to be 1.2 nM. For the same molecule, in the assay with recombinant human DSG2 [13], the equilibrium dissociation constant (Kd) came out at 0.58 nM and the koff came out at 0.00083 s⁻¹. In addition, in the assay with recombinant human DSG2 [17], the equilibrium dissociation constant (Kd) came to 1.19 nM, the off-rate (koff) amounted to 0.00075 s⁻¹ and the on-rate constant (kon) worked out at 630000 M⁻¹ s⁻¹.

B3: JOC-poly(I:C) conjugate (designed binder)
chain: RGSHHHHHHGSKNSIALKNNTLWTGPKPEANSIIEYGKQNPDSKLTLILVKNGGIVNGYVTLMGASDYVNTLFKNKNVSINVELYFDATGHILPDSSSLKTDLELKYKQTADFSARGFMPSTTAYPFDLPNAGTHNENYIFGQSYYKASDGALFPLEVTVMLNKRLPDSRTSYVMTFLWSLNAGLAPETTQATLITSPFTFSYIREDDGGGSGGGSGGGSC
modifications: poly(I:C) linked through the crosslinker SMPB to the free cysteine on JOC-x
With B3, in assay [8], the “IC50 of the conjugate relative to the unconjugated protein (VIA)” value is around 6.3 fold and the “VIA IC50” value worked out at 0.203 µg/mL.

B4: JOC-DOTA (designed binder)
chain: RGSHHHHHHGSKNSIALKNNTLWTGPKPEANSIIEYGKQNPDSKLTLILVKNGGIVNGYVTLMGASDYVNTLFKNKNVSINVELYFDATGHILPDSSSLKTDLELKYKQTADFSARGFMPSTTAYPFDLPNAGTHNENYIFGQSYYKASDGALFPLEVTVMLNKRLPDSRTSYVMTFLWSLNAGLAPETTQATLITSPFTFSYIREDDGGGSGGGSGGGSC
modifications: maleimido-mono-amide-DOTA conjugated to reduced JOC-x (free cysteine)
In the case of B4, the “VIA IC50” value in [8] stood at 0.131 µg/mL.

B5: JOC-DOTA (Eu) (designed binder)
chain: RGSHHHHHHGSKNSIALKNNTLWTGPKPEANSIIEYGKQNPDSKLTLILVKNGGIVNGYVTLMGASDYVNTLFKNKNVSINVELYFDATGHILPDSSSLKTDLELKYKQTADFSARGFMPSTTAYPFDLPNAGTHNENYIFGQSYYKASDGALFPLEVTVMLNKRLPDSRTSYVMTFLWSLNAGLAPETTQATLITSPFTFSYIREDDGGGSGGGSGGGSC
modifications: maleimido-mono-amide-DOTA conjugated to reduced JOC-x (free cysteine), complexed with europium ions
Regarding B5, the “VIA IC50” value in assay [8] came to 0.254 µg/mL.

B6: GB5 (designed binder)
chain: MRGSHHHHHHGSKNSIALKNNTLWTGPKPEANSIIEYGKQNPDSKLTLILVKNGGIVNGYVTLMGASDYVNTLFKNKNVSINVELYFDATGHILPDSSSLKTDLELKYKQTADFSARGFMPSTTAYPFVLPNAGTHNENYIFGQSYYKASDGALFPLEVTVMLNKRLPDSRTSYVMTFLWSLNAGLAPETTQATLITSPFTFSYIREDD
As to B6, the “lower viral inhibition relative to JO-1 (VIA)” value in [8] amounted to 5 fold. Also, the “VIA IC50” value in assay [9] came to 0.241 µg/mL.

B7: GB10 (designed binder)
chain: MRGSHHHHHHCGSKVSALKEKVSALKEKVSALKEKVSALKEKVSALKEGSGGGSGGGSGGGSNSIALKNNTLWTGPKPEANSIIEYGKQNPDSKLTLILVKNGGIVNGYVTLMGASDYVNTLFKNKNVSINVELYFDATGHILPDSSSLKTDLELKYKQTADFSARGFMPSTTAYPFVLPNAGTHNENYIFGQSYYKASDGALFPLEVTVMLNKRLPDSRTSYVMTFLWSLNAGLAPETTQATLITSPFTFSYIREDD
For the molecule B7, in assay [9], the “VIA IC50” value came out at 0.026 µg/mL.

The record behind these values is patent US20200347101A1 (PAI LIFE SCIENCES, published 2020).
